Starred links: 1 amine or outer side, 2 acyl side, 3 side chain; linkers in the order of their positions; H or OH if unused. Positions of bridges follow the written chain, without caps; N, C: chain ends. Non-standard residues stand in square brackets, D forms with d. Primed or numbered codes have the meaning given here. PyrS2″ = (S)-3-amino-1-((pent-4-en-1-yloxy)carbonyl)pyrrolidine-3-carboxylic acid (stapling residue), C=CCCCOC(=O)N1CC[C@@](N[*:1])(C(=O)[*:2])C1; B5(30) = 2-amino-2-(pent-4-en-1-yl)hept-6-enoic acid (2,2-bis(4-pentenyl)glycine, stitching residue), C=CCCCC(CCCC=C)(N[*:1])C(=O)[*:2]; B5(4) = 2,2-bis(4-pentenyl)glycine = 2-amino-2-(pent-4-en-1-yl)hept-6-enoic acid (stitching residue), C=CCCCC(CCCC=C)(N[*:1])C(=O)[*:2]; B5(5) = 2,2-bis(4-pentenyl)glycine, 2-amino-2-(pent-4-en-1-yl)hept-6-enoic acid (stitching residue), C=CCCCC(CCCC=C)(N[*:1])C(=O)[*:2]; PyrS2 = (S)-3-amino-1-((pent-4-en-1-yloxy)carbonyl)pyrrolidine-3-carboxylic acid, C=CCCCOC(=O)N1CC[C@@](N[*:1])(C(=O)[*:2])C1; B5(12) = 2-amino-2-(pent-4-en-1-yl)hept-6-enoic acid (two olefin side chains), C=CCCCC(CCCC=C)(N[*:1])C(=O)[*:2]; B5(3) = 2,2-bis(4-pentenyl)glycine (stitching residue), C=CCCCC(CCCC=C)(N[*:1])C(=O)[*:2]; B5 = 2-amino-2-(pent-4-en-1-yl)hept-6-enoic acid, C=CCCCC(CCCC=C)(N[*:1])C(=O)[*:2]; Phe(3-COOH) = N[C@@H](Cc1cccc(C(=O)O)c1)C(=O)O; Trp(5-F) = N[C@@H](Cc1c[nH]c2ccc(F)cc12)C(=O)O; Phe(2-CF3) = N[C@@H](Cc1ccccc1C(F)(F)F)C(=O)O; Trp(1-Me) = Cn1cc(C[C@H](N)C(=O)O)c2ccccc21; Phe(2-Cl) = N[C@@H](Cc1ccccc1Cl)C(=O)O; 1Nal = N[C@@H](Cc1cccc2ccccc12)C(=O)O; Bta = N[C@@H](Cc1csc2ccccc12)C(=O)O; Lys(iPr) = CC(C)NCCCC[C@H](N)C(=O)O; αAllylPro = C=CC[C@@]1(C(=O)O)CCCN1; tBuAla = CC(C)(C)C[C@H](N)C(=O)O; 3Thi = N[C@@H](Cc1ccsc1)C(=O)O; Cha = N[C@@H](CC1CCCCC1)C(=O)O; S8 = C=CCCCCCC[C@](C)(N)C(=O)O; Thr(ol) = C[C@@H](O)[C@H](N)CO; Phe(ol) = N[C@H](CO)Cc1ccccc1; PyrS2(4) = not defined here
What was measured:
[1] = biological target: full-length beta-Catenin (Uniprot ID P35222) (Homo sapiens (Human)) (UniProt P35222); test: cell-based or functional assay
Target sequence in this assay (P35222 2-781 limits assumed): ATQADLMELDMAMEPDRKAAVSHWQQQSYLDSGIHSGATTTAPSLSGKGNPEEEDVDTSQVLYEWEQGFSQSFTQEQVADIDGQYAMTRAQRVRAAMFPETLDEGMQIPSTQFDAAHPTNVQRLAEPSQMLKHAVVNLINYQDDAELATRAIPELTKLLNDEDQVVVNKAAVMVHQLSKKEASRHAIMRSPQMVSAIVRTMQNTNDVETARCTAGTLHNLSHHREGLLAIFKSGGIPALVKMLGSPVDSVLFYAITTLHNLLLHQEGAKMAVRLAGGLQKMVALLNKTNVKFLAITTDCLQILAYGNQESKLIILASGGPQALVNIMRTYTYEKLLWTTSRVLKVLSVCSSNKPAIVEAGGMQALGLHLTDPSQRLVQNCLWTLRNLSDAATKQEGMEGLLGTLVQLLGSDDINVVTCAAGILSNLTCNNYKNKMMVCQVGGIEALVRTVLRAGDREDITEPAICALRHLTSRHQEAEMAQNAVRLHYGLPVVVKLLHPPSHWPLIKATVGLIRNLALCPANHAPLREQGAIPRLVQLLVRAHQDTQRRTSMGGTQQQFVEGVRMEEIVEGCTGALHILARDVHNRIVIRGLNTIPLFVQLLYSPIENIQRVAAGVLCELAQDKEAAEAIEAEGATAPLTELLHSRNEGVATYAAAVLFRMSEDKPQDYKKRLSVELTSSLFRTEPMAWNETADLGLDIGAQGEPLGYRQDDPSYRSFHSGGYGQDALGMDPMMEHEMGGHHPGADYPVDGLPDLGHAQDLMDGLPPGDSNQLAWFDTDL

Bcat-Halo = Bcat-Halo (UniProt P35222); test: NanoBRET Abs IC50 in HEK293 cells; Bcat-Halo with TCF4-Luc as competitor
[2] = biological target: full-length beta-Catenin (Uniprot ID P35222) (Homo sapiens (Human)) (UniProt P35222); test: fluorescence polarization competition; displacement of 5FAM-TCF4(10-53) from full-length beta-catenin
Target sequence in this assay (P35222 whole entry, one chain of several): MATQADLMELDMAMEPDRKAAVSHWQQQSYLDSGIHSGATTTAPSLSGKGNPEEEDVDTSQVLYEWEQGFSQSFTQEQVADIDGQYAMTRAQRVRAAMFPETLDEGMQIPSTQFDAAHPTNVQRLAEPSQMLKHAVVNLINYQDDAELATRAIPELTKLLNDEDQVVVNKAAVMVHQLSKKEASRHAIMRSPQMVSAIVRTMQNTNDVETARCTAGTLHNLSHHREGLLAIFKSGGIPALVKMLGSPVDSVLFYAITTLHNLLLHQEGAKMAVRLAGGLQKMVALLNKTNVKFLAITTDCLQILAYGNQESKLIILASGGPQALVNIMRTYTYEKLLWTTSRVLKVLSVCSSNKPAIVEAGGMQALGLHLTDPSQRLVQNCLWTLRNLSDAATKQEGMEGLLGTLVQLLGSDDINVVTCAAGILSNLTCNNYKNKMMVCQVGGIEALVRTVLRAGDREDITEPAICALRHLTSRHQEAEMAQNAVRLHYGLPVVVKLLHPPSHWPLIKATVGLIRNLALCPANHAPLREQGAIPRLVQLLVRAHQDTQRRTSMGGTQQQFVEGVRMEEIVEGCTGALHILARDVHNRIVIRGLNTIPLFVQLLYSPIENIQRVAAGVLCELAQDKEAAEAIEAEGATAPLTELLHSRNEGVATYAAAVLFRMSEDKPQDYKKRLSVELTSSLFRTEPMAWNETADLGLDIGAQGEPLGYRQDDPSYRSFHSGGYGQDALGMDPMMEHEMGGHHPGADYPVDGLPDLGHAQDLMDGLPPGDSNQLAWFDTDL

[3] = biological target: full-length beta-Catenin (Uniprot ID P35222) (Homo sapiens (Human)) (UniProt P35222); test: fluorescence polarization competition; full-length beta-catenin + 5FAM-TCF4(10-53) probe as competitor
Target sequence in this assay (P35222 2-781 limits assumed): as the sequence (P35222 2-781 limits assumed) above

[4] = biological target: full-length beta-Catenin (Uniprot ID P35222) (Homo sapiens (Human)) (UniProt P35222); test: fluorescence polarization competition; peptide titrated against 5FAM-TCF4(10-53) bound to full-length beta-catenin
Target sequence in this assay (P35222 whole entry, one chain of several): as the sequence (P35222 whole entry, one chain of several) above

[5] = biological target: full-length beta-Catenin (Uniprot ID P35222) (Homo sapiens (Human)) (UniProt P35222); test: fluorescence polarization competition; full-length beta-catenin + 5FAM-TCF4 10-53 probe
Target sequence in this assay (P35222 2-781 limits assumed): as the sequence (P35222 2-781 limits assumed) above

[6] = biological target: full-length beta-Catenin (Uniprot ID P35222) (Homo sapiens (Human)) (UniProt P35222); test: fluorescence polarization competition; full-length beta-catenin + 5FAM-TCF4(10-53) probe
Target sequence in this assay (P35222 whole entry, one chain of several): as the sequence (P35222 whole entry, one chain of several) above

[7] = biological target: full-length beta-Catenin (Uniprot ID P35222) (Homo sapiens (Human)) (UniProt P35222); test: fluorescence polarization competition; full-length beta-catenin, competitor 5FAM-TCF4(10-53) probe
Target sequence in this assay (P35222 2-781 limits assumed): as the sequence (P35222 2-781 limits assumed) above

[8] = biological target: B-cat-Halo (beta-catenin HaloTag NanoBRET construct expressed in HEK293 cells) (UniProt P35222); test: NanoBRET in HEK293 cells, Bcat-Halo + TCF4-Luc, peptide at 10 uM
[9] = biological target: full-length beta-Catenin (Uniprot ID P35222) (Homo sapiens (Human)) (UniProt P35222); test: fluorescence polarization competition; 10 nM full-length beta-catenin with 10 nM 5FAM-TCF4(10-53) probe as competitor
Target sequence in this assay (P35222 2-781 limits assumed): as above

[10] = biological target: full-length beta-Catenin (Uniprot ID P35222) (Homo sapiens (Human)) (UniProt P35222); test: fluorescence polarization competition: peptide titrated against 10 nM full-length beta-catenin + 10 nM 5FAM-TCF4(10-53) probe
Target sequence in this assay (P35222 2-781 limits assumed): as above

[11] = biological target: full-length beta-Catenin (Uniprot ID P35222) (Homo sapiens (Human)) (UniProt P35222); test: fluorescence polarization competition; peptide displaces 5FAM-TCF4(10-53) from full-length beta-catenin
[12] = biological target: full-length beta-Catenin (Uniprot ID P35222) (Homo sapiens (Human)) (UniProt P35222); test: fluorescence polarization competition; peptide titrated against 10 nM full-length beta-catenin + 10 nM 5FAM-TCF4(10-53)
[13] = biological target: full-length beta-Catenin (Uniprot ID P35222) (Homo sapiens (Human)) (UniProt P35222); test: FP competition, full-length beta-catenin, competitor probe 5FAM-TCF4 10-53

Bcat-Halo, sequence (P35222 whole entry): as the sequence (P35222 whole entry, one chain of several) above
B-cat-Halo (beta-catenin HaloTag NanoBRET construct expressed in HEK293 cells), sequence (P35222 whole entry): as the sequence (P35222 whole entry, one chain of several) above

B1: I-1097 (peptide)
peptide: Ac-[αAllylPro]D[tBuAla][B5(5)]DDAAFL[S8][Phe(2-Cl)][Bta][dT]-NH2
modifications: staple 1-4, 4-11
DLD1 reporter assay Abs IC50 [1]: > 20000 nM | IC50 (Bcat-Halo): > 20000 nM | IC50 [2]: 40 nM | EC50 [3]: 40 nM

B2: I-1106 (peptide)
peptide: Ac-[αAllylPro]D[tBuAla][B5(5)]DDAAFS[PyrS2″][Cha][Bta]S-NH2
modifications: staple 1-4, 4-11
IC50 (Bcat-Halo): > 20000 nM | IC50 [2]: 23 nM | EC50 [3]: 23 nM

B3: I-1105 (peptide)
peptide: Ac-[αAllylPro]D[tBuAla][B5(5)]DDAA[Cha]S[PyrS2″]F[Bta]S-NH2
modifications: staple 1-4, 4-11
IC50 (Bcat-Halo): > 20000 nM | IC50 [2]: 36 nM | EC50 [3]: 36 nM

B4: I-1909 (peptide)
peptide: Ac-[αAllylPro]D[tBuAla][B5(12)]D[Phe(3-COOH)][Lys(iPr)]AFL[PyrS2(4)][3Thi][Bta]F-NH2
modifications: staple 1-4, 4-11; not fully specified; printed as Ac-PL3-Asp-Npg-B5-Asp-3COOHF-iPrLys-Ala-Phe-Leu-PyrS2-3Thi-BztA-Phe-NH2; reading uncertain
IC50 [4]: 29 nM

B5: I-1303 (peptide)
peptide: Ac-[αAllylPro]D[tBuAla][B5(4)]DDAAFF[PyrS2][3Thi][Bta][Thr(ol)]
modifications: staple 1-4, 4-11
IC50 [5]: 86 nM | EC50 [6]: 86 nM

B6: I-1311 (peptide)
peptide: Ac-[αAllylPro]D[tBuAla][B5(4)]DDAAFF[PyrS2″][Phe(2-Cl)][Bta][Thr(ol)]
modifications: staple 1-4, 4-11
IC50 [5]: 38 nM | EC50 [7]: 38 nM

B7: I-800 (peptide)
peptide: Ac-[αAllylPro]D[tBuAla][B5]DDAAFN[PyrS2][3Thi][Trp(5-F)]H-NH2
modifications: staple 1-4, 4-11
NanoBRET % inh @ 10 uM [8]: 8.1% | IC50 [9]: 79 nM | EC50 [10]: 79 nM

B8: I-1892 (peptide)
peptide: Ac-[αAllylPro]D[tBuAla][B5(30)]NRAAFN[PyrS2][3Thi][Bta]Q-NH2
modifications: staple 1-4, 4-11; also: earlier-eluting HPLC isomer
IC50 [4]: 1420 nM

B9: I-785 (peptide)
peptide: Ac-[αAllylPro]D[tBuAla][B5(5)]DDAAFN[PyrS2][3Thi][Bta]-NH2
modifications: staple 1-4, 4-11
NanoBRET % inh @ 10 uM [8]: 31% | IC50 [11]: 6 nM | EC50 [10]: 6 nM

B10: I-789 (peptide)
peptide: Ac-[αAllylPro]D[tBuAla][B5(5)]DDAAFN[PyrS2][3Thi][1Nal]H-NH2
modifications: staple 1-4, 4-11
NanoBRET % inh @ 10 uM [8]: 9.7% | IC50 [11]: 19 nM | EC50 [10]: 19 nM

B11: I-799 (peptide)
peptide: Ac-[αAllylPro]D[tBuAla][B5]DDAAFN[PyrS2][3Thi][Trp(1-Me)]H-NH2
modifications: staple 1-4, 4-11
NanoBRET % inh @ 10 uM [8]: 0.9% | IC50 [9]: 92 nM | EC50 [10]: 92 nM

B12: I-1304 (peptide)
peptide: Ac-[αAllylPro]N[tBuAla][B5(4)]DDAAFL[PyrS2][3Thi][Bta][Thr(ol)]
modifications: staple 1-4, 4-11
IC50 [5]: 31 nM | EC50 [6]: 31 nM

B13: I-1309 (peptide)
peptide: Ac-[αAllylPro]D[tBuAla][B5(4)]DTAAFT[PyrS2″][Phe(2-Cl)][Bta][Thr(ol)]
modifications: staple 1-4, 4-11
IC50 [5]: 59 nM | EC50 [7]: 59 nM

B14: I-1087 (peptide)
peptide: Ac-[αAllylPro]D[tBuAla][B5(4)]DDAAFT[S8][Phe(2-Cl)][Bta]Q-NH2
modifications: staple 1-4, 4-11; also: later-eluting HPLC peak staple isomer composition
DLD1 reporter assay Abs IC50 [1]: > 20000 nM | IC50 (Bcat-Halo): 9300 nM | EC50 [3]: 9 nM | IC50 [12]: 9 nM

B15: I-1904 (peptide)
peptide: Ac-[αAllylPro]D[tBuAla][B5(12)]D[Phe(3-COOH)]AAFL[PyrS2(4)][Phe(2-Cl)][Bta]N-NH2
modifications: staple 1-4, 4-11; not fully specified; printed as Ac-PL3-Asp-Npg-B5-Asp-3COOHF-Ala-Ala-Phe-Leu-PyrS2-2C1F-BztA-Asn-NH2; reading uncertain
IC50 [4]: 15 nM

B16: I-1099 (peptide)
peptide: Ac-[αAllylPro]D[tBuAla][B5(5)]DDAAFS[PyrS2″]F[Bta]S-NH2
modifications: staple 1-4, 4-11
IC50 (Bcat-Halo): 9000 nM | IC50 [2]: 9 nM | EC50 [3]: 9 nM

B17: I-1891 (peptide)
peptide: Ac-[αAllylPro]D[tBuAla][B5(5)]DRAAFN[PyrS2][3Thi][Bta]Q-NH2
modifications: staple 1-4, 4-11; not fully specified; printed as Ac-PL3-Asp-Npg-B5-Asp-Arg-Ala-Ala-Phe-Asn-PyrS2-3Thi-BztA-Gln-NH2
IC50 [4]: 40 nM

B18: I-1890 (peptide)
peptide: Ac-[αAllylPro]D[tBuAla][B5(5)]DRAAFN[PyrS2][3Thi][Bta]Q-NH2
modifications: staple 1-4, 4-11; not fully specified; printed as Ac-PL3-Asp-Npg-B5-Asp-Arg-Ala-Ala-Phe-Asn-PyrS2-3Thi-BztA-Gln-NH2
IC50 [4]: 31 nM

B19: I-1083 (peptide)
peptide: Ac-[αAllylPro]D[tBuAla][B5(4)]DDAAFN[PyrS2″][Phe(2-Cl)][Bta][Phe(ol)]
modifications: staple 1-4, 4-11
IC50 (Bcat-Halo): 18800 nM | EC50 [3]: 8 nM | IC50 [12]: 8 nM

B20: I-1302 (peptide)
peptide: Ac-[αAllylPro]D[tBuAla][B5(4)]DDAAFL[PyrS2][3Thi][Bta][Thr(ol)]
modifications: staple 1-4, 4-11
IC50 [5]: 45 nM | EC50 [6]: 45 nM

B21: I-1911 (peptide)
peptide: Ac-[αAllylPro]D[tBuAla][B5(12)]D[Phe(3-COOH)]KAFL[PyrS2(4)][3Thi][Bta]F-NH2
modifications: staple 1-4, 4-11; not fully specified; printed as Ac-PL3-Asp-Npg-B5-Asp-3COOHF-Lys-Ala-Phe-Leu-PyrS2-3Thi-BztA-Phe-NH2; reading uncertain
IC50 [4]: 38 nM

B22: I-1082 (peptide)
peptide: Ac-[αAllylPro]D[tBuAla][B5(4)]DDAAFN[PyrS2″][Phe(2-Cl)][Bta][Thr(ol)]
modifications: staple 1-4, 4-11
DLD1 reporter assay Abs IC50 [1]: 4800 nM | IC50 (Bcat-Halo): 14100 nM | EC50 [3]: 5 nM | IC50 [12]: 5 nM

B23: I-1310 (peptide)
peptide: Ac-[αAllylPro]D[Cha][B5(4)]DTAAFT[PyrS2″][Phe(2-Cl)][Bta][Thr(ol)]
modifications: staple 1-4, 4-11
IC50 [5]: 124 nM | EC50 [7]: 124 nM

B24: I-1343 (peptide)
peptide: Ac-[αAllylPro]D[tBuAla][B5(4)]D[Phe(3-COOH)]AAFF[PyrS2″][Phe(2-CF3)][Bta][Thr(ol)]
modifications: staple 1-4, 4-11
IC50 [13]: 150 nM | EC50 [7]: 150 nM

B25: I-1307 (peptide)
peptide: Ac-[αAllylPro]D[Cha][B5(4)]DDAAFL[PyrS2″][Phe(2-Cl)][Bta][Thr(ol)]
modifications: staple 1-4, 4-11
IC50 [5]: 21 nM | EC50 [7]: 21 nM

B26: I-1910 (peptide)
peptide: Ac-[αAllylPro]D[tBuAla][B5(12)]D[Phe(3-COOH)]HAFL[PyrS2(4)][3Thi][Bta]F-NH2
modifications: staple 1-4, 4-11; not fully specified; printed as Ac-PL3-Asp-Npg-B5-Asp-3COOHF-His-Ala-Phe-Leu-PyrS2-3Thi-BztA-Phe-NH2; reading uncertain
IC50 [4]: 17 nM

Source: patent US20240116985A1, “STAPLED PEPTIDES AND METHODS THEREOF” (priority 2020, published 2024)
